# Patent US20180194839A1 (Novartis, published 2018)
# T1: recombinant human IL-4 (R&D Systems Cat#204-IL/CF) (human, UniProt P05112 25-153)
# T1 construct: also called huIL-4
# T1 sequence (looked up): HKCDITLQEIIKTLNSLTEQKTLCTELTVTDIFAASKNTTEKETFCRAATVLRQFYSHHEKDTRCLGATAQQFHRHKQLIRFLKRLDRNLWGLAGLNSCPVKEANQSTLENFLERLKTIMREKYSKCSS
# T2: recombinant human IL-8 (R&D Systems Cat#208-IL-010/CF) (human, UniProt P10145 28-99)
# T2 construct: also called huIL-8
# T2 sequence (looked up): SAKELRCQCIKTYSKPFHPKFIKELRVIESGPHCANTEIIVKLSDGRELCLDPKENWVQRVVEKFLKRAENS
# T3: recombinant human IL-20 (Novartis) (human, UniProt Q9NYY1 25-176, limits assumed)
# T3 construct: also called huIL-20
# T3 sequence (looked up): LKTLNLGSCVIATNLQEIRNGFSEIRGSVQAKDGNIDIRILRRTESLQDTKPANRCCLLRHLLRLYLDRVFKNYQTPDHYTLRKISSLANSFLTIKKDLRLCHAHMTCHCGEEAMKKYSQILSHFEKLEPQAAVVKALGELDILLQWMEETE
# T4: recombinant human IFNγ (Roche) (human, UniProt P01579 24-166, limits assumed)
# T4 construct: also called huIFNγ
# T4 sequence (looked up): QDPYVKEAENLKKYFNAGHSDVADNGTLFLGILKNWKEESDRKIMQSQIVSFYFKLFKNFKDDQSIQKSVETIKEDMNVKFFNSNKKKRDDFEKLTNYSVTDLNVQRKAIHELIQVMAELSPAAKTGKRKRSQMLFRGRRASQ
# T5: recombinant human TGFβ2 (Novartis) (human, UniProt P61812 303-414)
# T5 construct: also called huTGFβ2
# T5 sequence (looked up): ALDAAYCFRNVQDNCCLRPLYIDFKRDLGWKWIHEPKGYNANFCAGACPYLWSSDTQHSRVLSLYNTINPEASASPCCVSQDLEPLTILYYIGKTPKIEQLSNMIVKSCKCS
# T6: recombinant mouse IL-1β (R&D Systems Cat#401-ML) (mouse, UniProt P10749 118-269)
# T6 construct: also called mIL-1β
# T6 sequence (looked up): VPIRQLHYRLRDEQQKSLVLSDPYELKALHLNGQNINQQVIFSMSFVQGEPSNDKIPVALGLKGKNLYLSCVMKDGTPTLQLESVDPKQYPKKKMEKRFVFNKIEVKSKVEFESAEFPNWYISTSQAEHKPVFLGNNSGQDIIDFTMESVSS
# T7: recombinant mouse IL-6 (R&D Systems Cat#406-ML-010/CF) (mouse, UniProt P08505 25-211)
# T7 construct: coated at 0.5 µg/ml; also called mIL-6
# T7 sequence (looked up): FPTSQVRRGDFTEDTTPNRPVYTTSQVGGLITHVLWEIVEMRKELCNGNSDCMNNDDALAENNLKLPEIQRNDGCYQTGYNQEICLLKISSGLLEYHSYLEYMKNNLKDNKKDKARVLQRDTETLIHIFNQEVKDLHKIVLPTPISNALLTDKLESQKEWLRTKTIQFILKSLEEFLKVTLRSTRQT
# T8: recombinant mouse IL-18 (MBL Cat#B004-5) (mouse, UniProt P70380 36-192)
# T8 construct: also called mIL-18
# T8 sequence (looked up): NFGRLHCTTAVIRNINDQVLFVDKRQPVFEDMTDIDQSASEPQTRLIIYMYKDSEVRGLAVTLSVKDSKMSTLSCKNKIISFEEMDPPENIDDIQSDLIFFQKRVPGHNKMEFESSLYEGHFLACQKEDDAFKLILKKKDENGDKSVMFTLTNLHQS
# T9: recombinant mouse IL-23 (R&D Systems Cat#1887-ML) (mouse, UniProt Q9EQ14 22-196; P43432 23-335)
# T9 construct: also called mIL-23
# T9 sequence (looked up) 1: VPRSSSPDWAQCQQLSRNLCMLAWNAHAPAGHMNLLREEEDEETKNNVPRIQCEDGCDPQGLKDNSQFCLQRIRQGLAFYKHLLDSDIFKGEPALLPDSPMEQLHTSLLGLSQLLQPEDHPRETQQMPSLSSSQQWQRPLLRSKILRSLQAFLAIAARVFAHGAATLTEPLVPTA
# T9 sequence (looked up) 2: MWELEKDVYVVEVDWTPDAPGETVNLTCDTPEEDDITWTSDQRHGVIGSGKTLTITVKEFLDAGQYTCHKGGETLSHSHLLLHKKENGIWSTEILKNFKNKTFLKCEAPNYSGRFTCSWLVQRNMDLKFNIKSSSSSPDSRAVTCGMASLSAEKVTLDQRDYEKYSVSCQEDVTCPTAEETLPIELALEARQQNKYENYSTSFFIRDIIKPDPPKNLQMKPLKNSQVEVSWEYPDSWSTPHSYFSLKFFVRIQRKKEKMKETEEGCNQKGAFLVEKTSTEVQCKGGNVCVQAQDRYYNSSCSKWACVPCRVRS
# T10: recombinant mouse IFN-γ (R&D Systems Cat#485-MT) (mouse, UniProt P01580 23-155)
# T10 construct: also called mIFN-γ
# T10 sequence (looked up): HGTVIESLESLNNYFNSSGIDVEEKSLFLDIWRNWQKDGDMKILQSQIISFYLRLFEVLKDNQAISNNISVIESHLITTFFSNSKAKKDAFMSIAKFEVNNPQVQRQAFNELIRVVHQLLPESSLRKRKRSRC
# T11: recombinant human IL-18 (MBL Cat# B003-5) (human, UniProt Q14116 37-193)
# T11 construct: also called huIL-18
# T11 sequence (looked up): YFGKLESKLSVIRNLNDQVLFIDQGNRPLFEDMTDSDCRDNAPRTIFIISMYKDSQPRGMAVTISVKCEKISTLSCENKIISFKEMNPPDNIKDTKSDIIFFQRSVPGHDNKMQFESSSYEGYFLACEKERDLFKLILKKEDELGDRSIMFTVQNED
# Columns and labels:
# [1] = molecular target: T1, recombinant human IL-4 (R&D Systems …); test: ELISA, coated cytokine;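 note: antibodies incubated 3 h at room temperature on cytokine-coated plates, binding read out with alkaline phosphatase-conjugated anti-species IgG secondary antibodies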
# [2] = molecular target: T2, recombinant human IL-8 (R&D Systems …); test: ELISA, coated cytokine;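 note: antibodies incubated 3 h at room temperature on cytokine-coated plates, binding read out with alkaline phosphatase-conjugated anti-species IgG secondary antibodies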
# [3] = molecular target: T3, recombinant human IL-20 (Novartis); test: ELISA, coated cytokine;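 note: antibodies incubated 3 h at room temperature on cytokine-coated plates, binding read out with alkaline phosphatase-conjugated anti-species IgG secondary antibodies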
# [4] = molecular target: T4, recombinant human IFNγ (Roche); test: ELISA, coated cytokine;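 note: antibodies incubated 3 h at room temperature on cytokine-coated plates, binding read out with alkaline phosphatase-conjugated anti-species IgG secondary antibodies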
# [5] = molecular target: T12, recombinant human TNFα (Novartis) (human, UniProt P01375 77-233); test: ELISA, coated cytokine
# T12 construct: also called huTNFα
# T12 sequence (P01375 77-233 limits assumed): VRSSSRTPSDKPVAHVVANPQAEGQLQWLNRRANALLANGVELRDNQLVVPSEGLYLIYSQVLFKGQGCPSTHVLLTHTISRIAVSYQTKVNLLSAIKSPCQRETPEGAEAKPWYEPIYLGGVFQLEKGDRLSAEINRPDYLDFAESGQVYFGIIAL
# [6] = molecular target: T5, recombinant human TGFβ2 (Novartis); test: ELISA, coated cytokine
# [7] = molecular target: T6, recombinant mouse IL-1β (R&D Systems …); test: ELISA, coated cytokine
# [8] = molecular target: T7, recombinant mouse IL-6 (R&D Systems …); test: ELISA, coated cytokine
# [9] = molecular target: T8, recombinant mouse IL-18 (MBL Cat#B004-5); test: ELISA, coated cytokine
# [10] = molecular target: T9, recombinant mouse IL-23 (R&D Systems …); test: ELISA, coated cytokine
# [11] = molecular target: T10, recombinant mouse IFN-γ (R&D Systems …); test: ELISA, coated cytokine
# [12] = molecular target: T1, recombinant human IL-4 (R&D Systems …); test: ELISA, coated cytokine, Ab 10 µg/ml;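 note: antibodies incubated 3 h at room temperature on the coated wells, binding detected with alkaline phosphatase-conjugated anti-IgG secondary antibodies matching the species of each test antibody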
# Method: (§1) The antibodies of the disclosure were added at 10 μg/ml (100 μl/well) for 3 h at room temperature. […] They were added at 1 or 5 μg/ml, in PBS, 0.02% NaN₃ for 3 h at RT.
# (§2) Plates were then washed 4 times with PBS/0.05% Tween 20/0.02% NaN₃. Then, an alkaline phosphatase-conjugated goat anti-human IgG antibody (Sigma Cat# A9544) was added to the wells with human antibodies at a dilution of 1/20000 (100 μl/well). An alkaline phosphatase-conjugated goat anti-mouse IgG antibody (Sigma Cat# A1047) was added to the wells with mouse antibodies at a dilution of 1/10000 (100 μl/well). An alkaline phosphatase-conjugated rabbit anti-goat IgG antibody (Sigma Cat# A7650) was added to the wells with goat antibodies at a dilution of 1/1000 (100 μl/well) and an alkaline phosphatase-conjugated rabbit anti rat-IgG antibody (Sigma Cat# A6066) was added to the wells with rat antibodies at a dilution of 1/20000 (100 μl/well).
# [13] = molecular target: T11, recombinant human IL-18 (MBL Cat# …); test: ELISA, coated cytokine, Ab 10 µg/ml;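 note: antibodies incubated 3 h at room temperature on the coated wells, binding detected with alkaline phosphatase-conjugated anti-IgG secondary antibodies matching the species of each test antibody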
# Method: as §1, §2
# [14] = molecular target: T4, recombinant human IFNγ (Roche); test: ELISA, coated cytokine, Ab 10 µg/ml;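 note: antibodies incubated 3 h at room temperature on the coated wells, binding detected with alkaline phosphatase-conjugated anti-IgG secondary antibodies matching the species of each test antibody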
# Method: as §1, §2
Binder,binding result [1],binding result [2],binding result [3],binding result [4],binding result [5],binding result [6],binding result [7],binding result [8],binding result [9],binding result [10],binding result [11],O.D. [12] [O.D.],O.D. [13] [O.D.],O.D. [14] [O.D.]
"XAB4 (antibody, human IgG1, kappa, V domains shown, also called MB435 N56Q) VH: EVQLVESGGDLVQPGGSLRLSCAASGFTFSSYWMSWVRQAPGKGLEWVANIKQDGSEKYYVDSVKGRFTISRDNAKNSLYLQMNSLRAEDTAVYYCARDRGSLYYWGQGTLVTVSS VL: AIQLTQSPSSLSASVGDRVTITCRPSQGINWELAWYQQKPGKAPKLLIYDASSLEQGVPSRFSGSGSGTDFTLTISSLQPEDFATYYCQQFNSYPLTFGGGTKVEIKR",no binding (tested: 10 µg/ml),no binding (tested: 10 µg/ml),no binding (tested: 10 µg/ml),no binding (tested: 10 µg/ml),no binding (tested: 10 µg/ml),no binding (tested: 10 µg/ml),no binding (tested: 10 µg/ml),no binding (tested: 10 µg/ml),no binding (tested: 10 µg/ml),no binding (tested: 10 µg/ml),no binding (tested: 10 µg/ml),0.047,-0.001,0.048
"XAB1 (antibody, human IgG1, kappa, V domains shown, human IgG1/kappa monoclonal antibody; also called parental XAB1; XAB1 IgG) VH: EVQLVESGGDLVQPGGSLRLSCAASGFTFSSYWMSWVRQAPGKGLEWVANIKQDGSEKYYVDSVKGRFTISRDNAKNSLYLQMNSLRAEDTAVYYCARDRGSLYYWGQGTLVTVSS VL: AIQLTQSPSSLSASVGDRVTITCRPSQGIISALAWYQQKPGKAPKLLIYDASSLENGVPSRFSGSGSGTDFTLTISSLQPEDFATYYCQQFNSYPLTFGGGTKVEIKR",no binding (tested: 10 µg/ml),no binding (tested: 10 µg/ml),no binding (tested: 10 µg/ml),no binding (tested: 10 µg/ml),no binding (tested: 10 µg/ml),no binding (tested: 10 µg/ml),no binding (tested: 10 µg/ml),no binding (tested: 10 µg/ml),no binding (tested: 10 µg/ml),no binding (tested: 10 µg/ml),no binding (tested: 10 µg/ml),0.057,-0.086,0.059
